T1: fluorescently quenched α-gliadin hexapeptide analogue QXL520-PQPQLP-K(5-FAM)-NH2
T1 chain: PQPQLP

B1: Kumamolysin-As N291D, Q361D, D358G (protein)
chain: MSDMEKPWKEGEEARAVLQGHARAQAPQAVDKGPVAGDERMAVTVVLRRQRAGELAAHVERQAAIAPHAREHLKREAFAASHGASLDDFAELRRFADAHGLALDRANVAAGTAVLSGPVDAINRAFGVELRHFDHPDGSYRSYLGEVTVPASIAPMIEAVLGLDTRPVARPHFRMQRRAEGGFEARSQAAAPTAYTPLDVAQAYQFPEGLDGQGQCIAIIELGGGYDEASLAQYFASLGVPAPQVVSVSVDGASNQPTGDPSGPDGEVELDIEVAGALAPGAKFAVYFAPDTDAGFLDAITTAIHDPTLKPSVVSISWGGPEDSWTSAAIAAMNRAFLDAAALGVTVLAAAGDSGSTGGEDDGLYHVDFPAASPYVLACGGTRLVASGGRIAQETVWNDGPDGGATGGGVSRIFPLPAWQEHANVPPSANPGASSGRGVPDLAGNADPATGYEVVIDGEATVIGGTSAVAPLFAALVARINQKLGKAVGYLNPTLYQLPADVFHDITEGNNDIANRAQIYQAGPGWDPCTGLGSPIGVRLLQALLPSASQPQPGSTENLYFQSGALEHHHHHH
B2: Kumamolysin-As N291D, G319S, S354N, D358G, D368H (protein)
chain: MSDMEKPWKEGEEARAVLQGHARAQAPQAVDKGPVAGDERMAVTVVLRRQRAGELAAHVERQAAIAPHAREHLKREAFAASHGASLDDFAELRRFADAHGLALDRANVAAGTAVLSGPVDAINRAFGVELRHFDHPDGSYRSYLGEVTVPASIAPMIEAVLGLDTRPVARPHFRMQRRAEGGFEARSQAAAPTAYTPLDVAQAYQFPEGLDGQGQCIAIIELGGGYDEASLAQYFASLGVPAPQVVSVSVDGASNQPTGDPSGPDGEVELDIEVAGALAPGAKFAVYFAPDTDAGFLDAITTAIHDPTLKPSVVSISWSGPEDSWTSAAIAAMNRAFLDAAALGVTVLAAAGDNGSTGGEQDGLYHVHFPAASPYVLACGGTRLVASGGRIAQETVWNDGPDGGATGGGVSRIFPLPAWQEHANVPPSANPGASSGRGVPDLAGNADPATGYEVVIDGEATVIGGTSAVAPLFAALVARINQKLGKAVGYLNPTLYQLPADVFHDITEGNNDIANRAQIYQAGPGWDPCTGLGSPIGVRLLQALLPSASQPQPGSTENLYFQSGALEHHHHHH
B3: Kumamolysin-As S262G, T292S, N291D, G319S, D358G, D368H (protein)
chain: MSDMEKPWKEGEEARAVLQGHARAQAPQAVDKGPVAGDERMAVTVVLRRQRAGELAAHVERQAAIAPHAREHLKREAFAASHGASLDDFAELRRFADAHGLALDRANVAAGTAVLSGPVDAINRAFGVELRHFDHPDGSYRSYLGEVTVPASIAPMIEAVLGLDTRPVARPHFRMQRRAEGGFEARSQAAAPTAYTPLDVAQAYQFPEGLDGQGQCIAIIELGGGYDEASLAQYFASLGVPAPQVVSVSVDGASNQPTGDPGGPDGEVELDIEVAGALAPGAKFAVYFAPDSDAGFLDAITTAIHDPTLKPSVVSISWSGPEDSWTSAAIAAMNRAFLDAAALGVTVLAAAGDSGSTGGEQDGLYHVHFPAASPYVLACGGTRLVASGGRIAQETVWNDGPDGGATGGGVSRIFPLPAWQEHANVPPSANPGASSGRGVPDLAGNADPATGYEVVIDGEATVIGGTSAVAPLFAALVARINQKLGKAVGYLNPTLYQLPADVFHDITEGNNDIANRAQIYQAGPGWDPCTGLGSPIGVRLLQALLPSASQPQPGSTENLYFQSGALEHHHHHH
B4: Kumamolysin-As D293T, N291D, G319S, D358G, D368H (protein)
chain: MSDMEKPWKEGEEARAVLQGHARAQAPQAVDKGPVAGDERMAVTVVLRRQRAGELAAHVERQAAIAPHAREHLKREAFAASHGASLDDFAELRRFADAHGLALDRANVAAGTAVLSGPVDAINRAFGVELRHFDHPDGSYRSYLGEVTVPASIAPMIEAVLGLDTRPVARPHFRMQRRAEGGFEARSQAAAPTAYTPLDVAQAYQFPEGLDGQGQCIAIIELGGGYDEASLAQYFASLGVPAPQVVSVSVDGASNQPTGDPSGPDGEVELDIEVAGALAPGAKFAVYFAPDTTAGFLDAITTAIHDPTLKPSVVSISWSGPEDSWTSAAIAAMNRAFLDAAALGVTVLAAAGDSGSTGGEQDGLYHVHFPAASPYVLACGGTRLVASGGRIAQETVWNDGPDGGATGGGVSRIFPLPAWQEHANVPPSANPGASSGRGVPDLAGNADPATGYEVVIDGEATVIGGTSAVAPLFAALVARINQKLGKAVGYLNPTLYQLPADVFHDITEGNNDIANRAQIYQAGPGWDPCTGLGSPIGVRLLQALLPSASQPQPGSTENLYFQSGALEHHHHHH
B5: Kumamolysin-As N291D, D293A, G319S, D358G, Q361D, D368H (protein)
chain: MSDMEKPWKEGEEARAVLQGHARAQAPQAVDKGPVAGDERMAVTVVLRRQRAGELAAHVERQAAIAPHAREHLKREAFAASHGASLDDFAELRRFADAHGLALDRANVAAGTAVLSGPVDAINRAFGVELRHFDHPDGSYRSYLGEVTVPASIAPMIEAVLGLDTRPVARPHFRMQRRAEGGFEARSQAAAPTAYTPLDVAQAYQFPEGLDGQGQCIAIIELGGGYDEASLAQYFASLGVPAPQVVSVSVDGASNQPTGDPSGPDGEVELDIEVAGALAPGAKFAVYFAPDTAAGFLDAITTAIHDPTLKPSVVSISWSGPEDSWTSAAIAAMNRAFLDAAALGVTVLAAAGDSGSTGGEDDGLYHVHFPAASPYVLACGGTRLVASGGRIAQETVWNDGPDGGATGGGVSRIFPLPAWQEHANVPPSANPGASSGRGVPDLAGNADPATGYEVVIDGEATVIGGTSAVAPLFAALVARINQKLGKAVGYLNPTLYQLPADVFHDITEGNNDIANRAQIYQAGPGWDPCTGLGSPIGVRLLQALLPSASQPQPGSTENLYFQSGALEHHHHHH
B6: Kumamolysin-As N291D, D293A, D358N (protein)
chain: MSDMEKPWKEGEEARAVLQGHARAQAPQAVDKGPVAGDERMAVTVVLRRQRAGELAAHVERQAAIAPHAREHLKREAFAASHGASLDDFAELRRFADAHGLALDRANVAAGTAVLSGPVDAINRAFGVELRHFDHPDGSYRSYLGEVTVPASIAPMIEAVLGLDTRPVARPHFRMQRRAEGGFEARSQAAAPTAYTPLDVAQAYQFPEGLDGQGQCIAIIELGGGYDEASLAQYFASLGVPAPQVVSVSVDGASNQPTGDPSGPDGEVELDIEVAGALAPGAKFAVYFAPDTAAGFLDAITTAIHDPTLKPSVVSISWGGPEDSWTSAAIAAMNRAFLDAAALGVTVLAAAGDSGSTNGEQDGLYHVDFPAASPYVLACGGTRLVASGGRIAQETVWNDGPDGGATGGGVSRIFPLPAWQEHANVPPSANPGASSGRGVPDLAGNADPATGYEVVIDGEATVIGGTSAVAPLFAALVARINQKLGKAVGYLNPTLYQLPADVFHDITEGNNDIANRAQIYQAGPGWDPCTGLGSPIGVRLLQALLPSASQPQPGSTENLYFQSGALEHHHHHH
B7: Kumamolysin-As N291D, G319S, S354N, D358G, Q361D, D368H (protein)
chain: MSDMEKPWKEGEEARAVLQGHARAQAPQAVDKGPVAGDERMAVTVVLRRQRAGELAAHVERQAAIAPHAREHLKREAFAASHGASLDDFAELRRFADAHGLALDRANVAAGTAVLSGPVDAINRAFGVELRHFDHPDGSYRSYLGEVTVPASIAPMIEAVLGLDTRPVARPHFRMQRRAEGGFEARSQAAAPTAYTPLDVAQAYQFPEGLDGQGQCIAIIELGGGYDEASLAQYFASLGVPAPQVVSVSVDGASNQPTGDPSGPDGEVELDIEVAGALAPGAKFAVYFAPDTDAGFLDAITTAIHDPTLKPSVVSISWSGPEDSWTSAAIAAMNRAFLDAAALGVTVLAAAGDNGSTGGEDDGLYHVHFPAASPYVLACGGTRLVASGGRIAQETVWNDGPDGGATGGGVSRIFPLPAWQEHANVPPSANPGASSGRGVPDLAGNADPATGYEVVIDGEATVIGGTSAVAPLFAALVARINQKLGKAVGYLNPTLYQLPADVFHDITEGNNDIANRAQIYQAGPGWDPCTGLGSPIGVRLLQALLPSASQPQPGSTENLYFQSGALEHHHHHH
B8: Kumamolysin-As N291D, D293A, G319S, S354N, D358G, Q361D, D368H (protein)
chain: MSDMEKPWKEGEEARAVLQGHARAQAPQAVDKGPVAGDERMAVTVVLRRQRAGELAAHVERQAAIAPHAREHLKREAFAASHGASLDDFAELRRFADAHGLALDRANVAAGTAVLSGPVDAINRAFGVELRHFDHPDGSYRSYLGEVTVPASIAPMIEAVLGLDTRPVARPHFRMQRRAEGGFEARSQAAAPTAYTPLDVAQAYQFPEGLDGQGQCIAIIELGGGYDEASLAQYFASLGVPAPQVVSVSVDGASNQPTGDPSGPDGEVELDIEVAGALAPGAKFAVYFAPDTAAGFLDAITTAIHDPTLKPSVVSISWSGPEDSWTSAAIAAMNRAFLDAAALGVTVLAAAGDNGSTGGEDDGLYHVHFPAASPYVLACGGTRLVASGGRIAQETVWNDGPDGGATGGGVSRIFPLPAWQEHANVPPSANPGASSGRGVPDLAGNADPATGYEVVIDGEATVIGGTSAVAPLFAALVARINQKLGKAVGYLNPTLYQLPADVFHDITEGNNDIANRAQIYQAGPGWDPCTGLGSPIGVRLLQALLPSASQPQPGSTENLYFQSGALEHHHHHH
B9: Kumamolysin-As N291D, G319S, D358G, Q361D, D368H (protein)
chain: MSDMEKPWKEGEEARAVLQGHARAQAPQAVDKGPVAGDERMAVTVVLRRQRAGELAAHVERQAAIAPHAREHLKREAFAASHGASLDDFAELRRFADAHGLALDRANVAAGTAVLSGPVDAINRAFGVELRHFDHPDGSYRSYLGEVTVPASIAPMIEAVLGLDTRPVARPHFRMQRRAEGGFEARSQAAAPTAYTPLDVAQAYQFPEGLDGQGQCIAIIELGGGYDEASLAQYFASLGVPAPQVVSVSVDGASNQPTGDPSGPDGEVELDIEVAGALAPGAKFAVYFAPDTDAGFLDAITTAIHDPTLKPSVVSISWSGPEDSWTSAAIAAMNRAFLDAAALGVTVLAAAGDSGSTGGEDDGLYHVHFPAASPYVLACGGTRLVASGGRIAQETVWNDGPDGGATGGGVSRIFPLPAWQEHANVPPSANPGASSGRGVPDLAGNADPATGYEVVIDGEATVIGGTSAVAPLFAALVARINQKLGKAVGYLNPTLYQLPADVFHDITEGNNDIANRAQIYQAGPGWDPCTGLGSPIGVRLLQALLPSASQPQPGSTENLYFQSGALEHHHHHH
B10: Kumamolysin-As T292S, N291D, G319S, D358G, D368H (protein)
chain: MSDMEKPWKEGEEARAVLQGHARAQAPQAVDKGPVAGDERMAVTVVLRRQRAGELAAHVERQAAIAPHAREHLKREAFAASHGASLDDFAELRRFADAHGLALDRANVAAGTAVLSGPVDAINRAFGVELRHFDHPDGSYRSYLGEVTVPASIAPMIEAVLGLDTRPVARPHFRMQRRAEGGFEARSQAAAPTAYTPLDVAQAYQFPEGLDGQGQCIAIIELGGGYDEASLAQYFASLGVPAPQVVSVSVDGASNQPTGDPSGPDGEVELDIEVAGALAPGAKFAVYFAPDSDAGFLDAITTAIHDPTLKPSVVSISWSGPEDSWTSAAIAAMNRAFLDAAALGVTVLAAAGDSGSTGGEQDGLYHVHFPAASPYVLACGGTRLVASGGRIAQETVWNDGPDGGATGGGVSRIFPLPAWQEHANVPPSANPGASSGRGVPDLAGNADPATGYEVVIDGEATVIGGTSAVAPLFAALVARINQKLGKAVGYLNPTLYQLPADVFHDITEGNNDIANRAQIYQAGPGWDPCTGLGSPIGVRLLQALLPSASQPQPGSTENLYFQSGALEHHHHHH

In this data set the target is T1, fluorescently quenched α-gliadin ….
Turning to B1, the Fold Change in Activity of PQ Hydrolysis Relative to Wild Type Kumamolysin-As worked out at 20 fold. Regarding B2, the Fold Change in Activity of PQ Hydrolysis Relative to Wild Type Kumamolysin-As was found to be 54.6 fold. B3 registered a Fold Change in Activity of PQ Hydrolysis Relative to Wild Type Kumamolysin-As of 29 fold. In the case of B4, the Fold Change in Activity of PQ Hydrolysis Relative to Wild Type Kumamolysin-As turned out to be 58 fold. In the case of B5 it was 40.9 fold; in that of B6, 24 fold; in that of B7, 50 fold. Protein B8 displayed a Fold Change in Activity of PQ Hydrolysis Relative to Wild Type Kumamolysin-As of 58 fold. The result for B9 reads 23.1 fold; that for B10, 49 fold.

The values are drawn from US10487318.
